B1: Fab VH5-51_IGHD5-18*01>3_IGHJ4*01 G100K/G104T G24T/S28R/G35V & V3-4_IGLJ1*01 V91L/S96P T53K (Fab, V domains shown)
VH: EVQLVQSGAEVKKPGESLKISCKTSGYRFTSYWIVWVRQMPGKGLEWMGIIYPGDSDTRYSPSFQGQVTISADKSISTAYLQWSSLKASDTAMYYCARRKYSYTYDYFDYWGQGTLVTVSS
VL: QTVVTQEPSFSVSPGGTVTLTCGLSSGSVSTSYYPSWYQQTPGQAPRTLIYSKNTRSSGVPDRFSGSILGNKAALTITGAQADDESDYYCLLYMGPGISYVFGTGTKVTVL
notes: Fab expressed in E. coli; heavy chain vector adds CH1 with His6 and Flag tags, light chain vector adds lambda CL; also called H:KT TRV & L:LP T53K
B2: Fab VH5-51_IGHD5-18*01>3_IGHJ4*01 G100K/G104T G24T/S28R/G35V & V3-4_IGLJ1*01 V91L/S96P S52K (Fab, V domains shown)
VH: B1 VH
VL: B1 VL with S52K, K53T
notes: Fab expressed in E. coli; heavy chain vector adds CH1 with His6 and Flag tags, light chain vector adds lambda CL; also called H:KT TRV & L:LP S52K
B3: Fab VH5-51_IGHD5-18*01>3_IGHJ4*01 G100K/G104T G24T/S28R/G35V & V3-4_IGLJ1*01 V91L/S96P S52W (Fab, V domains shown)
VH: B1 VH
VL: B1 VL with S52W, K53T
notes: Fab expressed in E. coli; heavy chain vector adds CH1 with His6 and Flag tags, light chain vector adds lambda CL; also called H:KT TRV & L:LP S52W
B4: Fab VH5-51_IGHD5-18*01>3_IGHJ4*01 G100K/G104T G24T/S28R/G35V & V3-4_IGLJ1*01 V91L/S96P S52V (Fab, V domains shown)
VH: B1 VH
VL: B1 VL with S52V, K53T
notes: Fab expressed in E. coli; heavy chain vector adds CH1 with His6 and Flag tags, light chain vector adds lambda CL; also called H:KT TRV & L:LP S52V
B5: Fab VH5-51_IGHD5-18*01>3_IGHJ4*01 G100K/G104T G24T/S28R/G35V & V3-4_IGLJ1*01 V91L/S96P S52Y (Fab, V domains shown)
VH: B1 VH
VL: B1 VL with S52Y, K53T
notes: Fab expressed in E. coli; heavy chain vector adds CH1 with His6 and Flag tags, light chain vector adds lambda CL; also called H:KT TRV & L:LP S52Y
B6: Fab VH5-51_IGHD5-18*01>3_IGHJ4*01 G100K/G104T G24T/S28R/G35V & V3-4_IGLJ1*01 V91L/S96P T53Q (Fab, V domains shown)
VH: B1 VH
VL: B1 VL with K53Q
notes: Fab expressed in E. coli; heavy chain vector adds CH1 with His6 and Flag tags, light chain vector adds lambda CL; also called H:KT TRV & L:LP T53Q
B7: Fab VH5-51_IGHD5-18*01>3_IGHJ4*01 G100K/G104T G24T/S28R/G35V & V3-4_IGLJ1*01 V91L/S96P S52H (Fab, V domains shown)
VH: B1 VH
VL: B1 VL with S52H, K53T
notes: Fab expressed in E. coli; heavy chain vector adds CH1 with His6 and Flag tags, light chain vector adds lambda CL; also called H:KT TRV & L:LP S52H
B8: Fab VH5-51_IGHD5-18*01>3_IGHJ4*01 G100K/G104T G24T/S28R/G35V & V3-4_IGLJ1*01 V91L/S96P T53N (Fab, V domains shown)
VH: B1 VH
VL: B1 VL with K53N
notes: Fab expressed in E. coli; heavy chain vector adds CH1 with His6 and Flag tags, light chain vector adds lambda CL; also called H:KT TRV & L:LP T53N
B9: Fab VH5-51_IGHD5-18*01>3_IGHJ4*01 G100K/G104T G24T/S28R/G35V & V3-4_IGLJ1*01 V91L/S96P T53P (Fab, V domains shown)
VH: B1 VH
VL: B1 VL with K53P
notes: Fab expressed in E. coli; heavy chain vector adds CH1 with His6 and Flag tags, light chain vector adds lambda CL; also called H:KT TRV & L:LP T53P
B10: Fab VH5-51_IGHD5-18*01>3_IGHJ4*01 G100K/G104T G24T/S28R/G35V & V3-4_IGLJ1*01 V91L/S96P S52P (Fab, V domains shown)
VH: B1 VH
VL: B1 VL with S52P, K53T
notes: Fab expressed in E. coli; heavy chain vector adds CH1 with His6 and Flag tags, light chain vector adds lambda CL; also called H:KT TRV & L:LP S52P
B11: Fab VH5-51_IGHD5-18*01>3_IGHJ4*01 G100K/G104T G24T/S28R/G35V & V3-4_IGLJ1*01 V91L/S96P T53L (Fab, V domains shown)
VH: B1 VH
VL: B1 VL with K53L
notes: Fab expressed in E. coli; heavy chain vector adds CH1 with His6 and Flag tags, light chain vector adds lambda CL; also called H:KT TRV & L:LP T53L
B12: Fab VH5-51_IGHD5-18*01>3_IGHJ4*01 G100K/G104T G24T/S28R/G35V & V3-4_IGLJ1*01 V91L/S96P S52Q (Fab, V domains shown)
VH: B1 VH
VL: B1 VL with S52Q, K53T
notes: Fab expressed in E. coli; heavy chain vector adds CH1 with His6 and Flag tags, light chain vector adds lambda CL; also called H:KT TRV & L:LP S52Q
B13: Fab VH5-51_IGHD5-18*01>3_IGHJ4*01 G100K/G104T G24T/S28R/G35V & V3-4_IGLJ1*01 V91L/S96P T53I (Fab, V domains shown)
VH: B1 VH
VL: B1 VL with K53I
notes: Fab expressed in E. coli; heavy chain vector adds CH1 with His6 and Flag tags, light chain vector adds lambda CL; also called H:KT TRV & L:LP T53I
B14: Fab VH5-51_IGHD5-18*01>3_IGHJ4*01 G100K/G104T G24T/S28R/G35V & V3-4_IGLJ1*01 V91L/S96P T53Y (Fab, V domains shown)
VH: B1 VH
VL: B1 VL with K53Y
notes: Fab expressed in E. coli; heavy chain vector adds CH1 with His6 and Flag tags, light chain vector adds lambda CL; also called H:KT TRV & L:LP T53Y
B15: Fab VH5-51_IGHD5-18*01>3_IGHJ4*01 G100K/G104T G24T/S28R/G35V & V3-4_IGLJ1*01 V91L/S96P S52M (Fab, V domains shown)
VH: B1 VH
VL: B1 VL with S52M, K53T
notes: Fab expressed in E. coli; heavy chain vector adds CH1 with His6 and Flag tags, light chain vector adds lambda CL; also called H:KT TRV & L:LP S52M
B16: Fab VH5-51_IGHD5-18*01>3_IGHJ4*01 G100K/G104T G24T/S28R/G35V & V3-4_IGLJ1*01 V91L/S96P T53D (Fab, V domains shown)
VH: B1 VH
VL: B1 VL with K53D
notes: Fab expressed in E. coli; heavy chain vector adds CH1 with His6 and Flag tags, light chain vector adds lambda CL; also called H:KT TRV & L:LP T53D
B17: Fab VH5-51_IGHD5-18*01>3_IGHJ4*01 G100K/G104T G24T/S28R/G35V & V3-4_IGLJ1*01 V91L/S96P S52N (Fab, V domains shown)
VH: B1 VH
VL: B1 VL with S52N, K53T
notes: Fab expressed in E. coli; heavy chain vector adds CH1 with His6 and Flag tags, light chain vector adds lambda CL; also called H:KT TRV & L:LP S52N
B18: Fab VH5-51_IGHD5-18*01>3_IGHJ4*01 G100K/G104T G24T/S28R/G35V & V3-4_IGLJ1*01 V91L/S96P S52I (Fab, V domains shown)
VH: B1 VH
VL: B1 VL with S52I, K53T
notes: Fab expressed in E. coli; heavy chain vector adds CH1 with His6 and Flag tags, light chain vector adds lambda CL; also called H:KT TRV & L:LP S52I

Substitutions are numbered along the chain they refer to. Names may count otherwise.

The target in the assay is T1, Recombinant Human DLL4 (delta-like protein 4) (human, UniProt Q9NR61 27-524).
T1 construct: also called rHuman DLL4; Delta-like 4
The assay can be described thus: ELISA, DLL4 coated on plate, Fab at 100 nM.
In the case of B1, the “ELISA Signal-blank (100 nM Fab)” value is 0.12.
As for B2, the figure is 0.32; as for B3, 0.29.
Next, B4: 0.44.
Next, B5: 0.41; B6: 0.11; B7: 0.44.
For the molecule B8, the “ELISA Signal-blank (100 nM Fab)” value amounted to 0.15.
Next, B9: 0.39.
As for B10, the figure is 0.32.
Next, B11: 0.18; B12: 0.39.
Turning to B13, the “ELISA Signal-blank (100 nM Fab)” value worked out at 0.3.
As for B14, the figure is 0.22.
For B15, the “ELISA Signal-blank (100 nM Fab)” value worked out at 0.46.
Next, B16: 0.16; B17: 0.45; B18: 0.42.

The record behind these values is patent US20120316071A1 (published 2012).
